Source: patent US20130310442

Columns and labels:
[1] = target: biotinylated human D-SDF-1 (Homo sapiens) (UniProt P48061); experiment: pulldown; conditions: single Kd stated after naming 193-C2-002 and 193-G2-012
[2] = target: human SDF-1alpha (CXCL12) (Homo sapiens) (UniProt P48061); experiment: SPR; conditions: L-RNA; 5'-40 kDa PEG; Biacore 2000, 37 C
Sequence of human SDF-1alpha (CXCL12) (Homo sapiens) (P48061 22-89): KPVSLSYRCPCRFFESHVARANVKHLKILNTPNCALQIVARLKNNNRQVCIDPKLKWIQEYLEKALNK

Sequence of biotinylated human D-SDF-1 (Homo sapiens) (P48061 22-92): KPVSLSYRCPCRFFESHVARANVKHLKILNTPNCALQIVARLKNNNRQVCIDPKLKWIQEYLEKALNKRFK

| Sequence | Kd [1] [nM] | Kd [2] [nM] |
| --- | --- | --- |
| GCGUGGUGUGAUCUAGAUGUAGUGGCUGAUCCUAGUCAGGUACGC [193-C2-002 (D)] | 0.3 | – |
| GCGUGGUGUGAUCUAGAUGUAUUGGCUGAUCCUAGUCAGGUACGC [NOX-A12 (193-G2-012-5'-PEG)] | – | 0.2 |
